Experimental data published in article doi:10.1101/2025.11.06.687013.
Starred links: 1 amine or outer side, 2 acyl side, 3 side chain; linkers in the order of their positions; H or OH if unused. Non-standard residues stand in square brackets, D forms with d. No end group written: not given here. βAsp = O=C(O)[C@H](CC(=O)[*:2])N[*:1]

Molecular target: H-2K^b (mouse (endogenous in RMA-S))
Experiment: flow cytometry on cells

- fold decrease of H-2Kb display against ca3: > 100 fold
Binder: I[βAsp]FDFPKL [ca3_(isoasp)]
